The labels stand for the following.
B1: Paired immunoglobulin-like type 2 receptor alpha (Homo sapiens), Q9UKJ1 (parent)
chain: MGRPLLLPLLPLLLPPAFLQPSGSTGSGPSYLYGVTQPKHLSASMGGSVEIPFSFYYPWELATAPDVRISWRRGHFHRQSFYSTRPPSIHKDYVNRLFLNWTEGQKSGFLRISNLQKQDQSVYFCRVELDTRSSGRQQWQSIEGTKLSITQAVTTTTQRPSSMTTTWRLSSTTTTTGLRVTQGKRRSDSWHISLETAVGVAVAVTVLGIMILGLICLLRWRRRKGQQRTKATTPAREPFQNTEEPYENIRNEGQNTDPKLNPKDDGIVYASLALSSSTSPRAPPSHRPLKSPQNETLYSVLKA
partner: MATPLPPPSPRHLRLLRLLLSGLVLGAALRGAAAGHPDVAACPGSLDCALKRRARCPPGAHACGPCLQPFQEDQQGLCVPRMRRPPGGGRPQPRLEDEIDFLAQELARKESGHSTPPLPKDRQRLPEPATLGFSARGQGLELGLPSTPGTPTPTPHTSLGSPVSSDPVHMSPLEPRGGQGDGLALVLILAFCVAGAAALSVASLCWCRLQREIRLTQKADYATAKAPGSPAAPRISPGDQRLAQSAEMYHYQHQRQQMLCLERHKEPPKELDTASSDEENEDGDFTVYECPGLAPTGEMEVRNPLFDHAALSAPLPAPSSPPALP
B2: Paired immunoglobulin-like type 2 receptor alpha (Homo sapiens), Q9UKJ1 (parent)
chain: B1 chain
partner: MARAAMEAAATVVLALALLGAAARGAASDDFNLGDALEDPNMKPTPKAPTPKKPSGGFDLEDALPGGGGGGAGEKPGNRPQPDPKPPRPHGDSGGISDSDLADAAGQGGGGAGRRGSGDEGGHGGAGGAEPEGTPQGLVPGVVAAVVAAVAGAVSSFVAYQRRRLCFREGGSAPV
B3: Paired immunoglobulin-like type 2 receptor alpha (Homo sapiens), Q9UKJ1 (parent)
chain: B1 chain

In one assay the parent is B1. The following applies: with npdc1_human NPDC1, Q9NQX5.
As for R126A, the “effect of a mutation on the interaction” value is “disrupting interaction strength”.

The variants in the next assay derive from B2. The following applies: with cd99_mouse Cd99, Q8VCN6.
On to R126A, for which the “effect of a mutation on the interaction” value is reported as “disrupting interaction strength”.

In the next assay the parent is B3. The following applies: with col12_human COLEC12, Q5KU26.
Sequence of col12_human COLEC12, Q5KU26 (Q5KU26 whole entry): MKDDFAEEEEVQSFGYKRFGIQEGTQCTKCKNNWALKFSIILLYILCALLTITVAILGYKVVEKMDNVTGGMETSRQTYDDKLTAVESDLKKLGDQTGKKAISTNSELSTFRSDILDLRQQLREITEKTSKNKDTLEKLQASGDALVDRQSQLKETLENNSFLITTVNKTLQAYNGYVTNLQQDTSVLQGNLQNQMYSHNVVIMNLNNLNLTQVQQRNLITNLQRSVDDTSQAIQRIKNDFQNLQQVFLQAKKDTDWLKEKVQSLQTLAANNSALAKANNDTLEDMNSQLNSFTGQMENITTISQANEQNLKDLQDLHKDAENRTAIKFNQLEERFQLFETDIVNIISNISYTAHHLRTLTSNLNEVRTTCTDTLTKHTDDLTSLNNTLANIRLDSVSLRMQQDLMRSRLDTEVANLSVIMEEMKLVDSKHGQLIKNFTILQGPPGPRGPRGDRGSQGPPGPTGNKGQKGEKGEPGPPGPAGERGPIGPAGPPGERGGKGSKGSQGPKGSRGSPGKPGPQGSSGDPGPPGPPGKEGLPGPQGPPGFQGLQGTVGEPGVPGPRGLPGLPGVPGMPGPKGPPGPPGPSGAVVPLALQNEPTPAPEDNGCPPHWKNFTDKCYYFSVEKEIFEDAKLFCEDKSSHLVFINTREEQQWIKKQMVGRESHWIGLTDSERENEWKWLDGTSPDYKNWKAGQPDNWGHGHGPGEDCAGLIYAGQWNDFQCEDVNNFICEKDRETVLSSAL
With R126A, the “effect of a mutation on the interaction” value is recorded as “disrupting interaction strength”.

The values above are taken from IntAct's records for PubMed 22396535.
